The results in this text go back to patent US20080207517A1 (INSTITUT PASTEUR, published 2008).

The data set concerns the molecule itself. Kind of data set: gel filtration (Superdex 75) at 10 µM, self-association. As for the experimental part: The oligomeric states of peptides were determined by filtration as described in Traincard et al., 2003. In brief, 500 μl samples were loaded on a SUPERDEX™ 75 HR 10/30 column equilibrated in 50 mM Tris-HCl pH 8.0 containing 200 mM NaCl and 0.1 mM DDM, at a constant flow rate of 0.4 ml/min. The presence of the DDM detergent was added in the equilibrium buffer to minimize the adsorption in the column and to increase the peptide recovery. The column was calibrated in the same equilibrium buffer with blue dextran 2000 (void volume), dithioerythritol (total volume), bovine serum albumin (67 kDa, Rs=35.2 Å), ovalbumine (43 kDa, Rs=27.5 Å), chymotrypsinogen A (25 kDa, Rs=21.1 Å), ribonuclease A (13.7 kDa, Rs=16.4 Å), cytochrome C (12.4 kDa, Rs=17.7 Å) and aprotinin (6.5 KDa, Rs=13.5 Å).
The antennapedia sequence is a protein transduction domain (PTD) which adopts an alpha-helical amphiphatic structure (Prochiantz, 2000, Curr. Opin. Cell Biol.). […] To examine the effect of N-fusion of the antennapedia peptide on the oligomerization properties of the CC2 and the LZ peptides, the present inventors analyzed peptides containing or not containing the antennapedia sequence at their N-terminus by gel filtration. […]

B1: LZ (WT) (peptide)
peptide: Ac-LKAQADIYKADFQAERHAREKLVEKKEYLQEQLEQLQREFNKL-NH2
notes: Forms a dimer at 10 uM in gel filtration; also called LZ peptide; LZ wild type
Take B1: the binding result is “binds”.
